According to the nanobody polyreactivity screen of Harvey et al. (2022):

Assay: yeast display, Sf9 membrane polyspecificity reagent, FACS + sequencing; frameworks hold sequencing errors
Summary of the method: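 Using colony PCR, genes from sorted yeast display clones were amplified, then sequenced on MiSeq at 2 × 250 and filtered by CDR length. The clones had been stained with 10% biotinylated, detergent-solubilized Sf9 membrane reagent for 1 hour at 4 °C and sorted by FACS into low and high (top ~1%) gates on anti-HA and streptavidin fluorescence. Polyreactivity labels come from the gate of origin.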

Sequence | polyreactivity (PSR sort gate)
QVQLVESGGGLVQAGGSLRLSCAASGIIFEYYAMGWYRQAPGKERELVAAISKRGGSTYYADSVKGRFTISRDNAKNTVYLQMNSLKPEDTAVYYCNARRWWVIRDYWGQGTQVTVSS | high polyreactivity
QVHLVESGGGLVQAGGSLRLRCAASGSTFGYYAMGWYRQAPGKERELVAAIRGSVTRTYYADSVKGRFTISRDNAKNTVYLEMNSLKPEDTAVYYCAAGSRLGWGSEYWGQGTQVTVSS | high polyreactivity
QVQLVESGGGLVQAGGSLRLSCAASGLTFRRNAMGWYRQAPGKERELVAVNSRSGGSTYYADSVKGRFTISRDNAKNTVYLQMNCLKPEDTAVYYCNKRTRRTYDYWGQGTQVTVSS | high polyreactivity
QVQLVESGGGLVQAGGSLRLSCAASGSTIGYYAMGWYRPAPGKERELVAAISWSGGSTYYADSVKGRFTISRDTAKNTVYFQMNSLKPEDTAGYYCAADTYPDYYLVEYYYWGQGTQVTVSS | low polyreactivity
QVQLVESGGGLVQAGGSLSLSCAASGITFVWYALGWYRQAPGTERELVAAISRGGSTYYADSVKGRFTISRDNAKNTVYLQMNSLKPEDTAVYYCNAESAARSTVQQARGYYWGQGTQVTVSS | high polyreactivity
QLQLVESGGGLVQAGGSLRLSCAASGSTFYAYAMGWYRQAPGKERELVARIRWRGGRTYYADSVKGRFTISRDNAKNTVYLRMNSLKPEDTAVYYCAADLSRAGGGYWGQGTQVTVSS | high polyreactivity
QVQLEESGGGLVQAGGSLRLSCAASGLIIRAYAMGWSRQAPGKERELVAAITSSSGSTYYADSVKGRFTISRDNGKNSVYLQMNSLNPEDTAVYYCNAYSTFGWYDYWGQGTQVTVSS | low polyreactivity
QVQLVESVGGLVQAGGSLRLSCAASGSIFDVNAMGWYRQAPGKERELVAAITSSGGSTYYADSVKGRFTISRDNAKNTVYLQMNSLKPEDTAVYYCAAYSLYTMYWGQGTQVTVSS | low polyreactivity
QVQLVESVGGLFQAGGSLRLSCDASGFTFTAYAMGWYIQAPGKERELVAAINWSGSRTYYADSVKGRFTISRDNAKNTVYLQMNSLKPEDTAVYYCNTATSKSSYRHYDYWGQGTQVTVSS | high polyreactivity
QVQLVETGGGLVQAGGSLRLSCAASGSIFQYYAMGSYRQAPGKERELVAAISSGGRTNYADSVKGRFTISRENAKNSVYLQMNSLKPEDTAVYYCAAARYYYQVYRWEYDYWGQGTQVTVSS | high polyreactivity
QVQLVESGGGLVQAGGSLRLSCAASGITFWPYAMGWYRQAPGKERELVAAISFIDGSTSYADSVKGRFTISRDNAKNTVYLQMNSLKPEDTAVYYCAAVIPGPSIWLYYYWGQGTQVTVSS | low polyreactivity
QVQLVESGGGLVQAGGSLRLSCAASGSIFNGNAMGWYRQAPGKERELVAAITRRGGRTYYADSVKGRFTISRDNAKNTVYLQMNSLKPEDTAVYYCNAYSKAVQGGYYYWGQGTQVTVSS | high polyreactivity
QVQLVESGGGLVQAGGSLRLSCAASGSTFKIYVMGWYRQAPGKERELVAAISWSGGRTFYADSVKGRFTISRDNAKNTVYLQMNSLKPEDTAVYYCAARWQRYRSGTGDYWGQGTQVTVSS | high polyreactivity
QDQHVESGGGLVQAGGSLRLSCAASGSTFDWNAMGWSRQAPGKERELVAGISWNGGSTYYADSVKGRFTISRDNAKNTVYLQMNSLKPEDTAVYYCNVVYGTTEYDYWGQGTQVTVSS | low polyreactivity
QVQLVESGGGLVQAGGSLRLSCAASGSIFWYNTMGWYRQAPGKERELVASISWDGGTYYADSVKGRFTISRDNAKNTVYLQMNSLKPEDTAVYYCNVAWYWGYDYWGQGTQVTVSS | low polyreactivity
QVQLVESGGGVVQAGGSLRLSCAASGSTFYPYAMGWYRPAPVKERELVASISSRGGTTYYADSEKGRFTISRDNAKNTVYLQRNSLKPEDTAVYYCAATYKHLNPLGVFSGGYYYWGQGTQVTVSS | high polyreactivity

Sequence | polyreactivity (PSR sort gate)
QVQLVESGGGLVQAGGSLRLSCAASGNTFYSYAMGWYRQAPGKERELVAAITWGGRTKYADSVKGRFTISRDNAKNTVYLQMNSLKPEDTAVYYCAARLYHGKTKYDYWGQGTQVTVSS | high polyreactivity
QVQLVESGGGLVQAGGSLRLSCASSGITLYGYAMGWYRQAPGKEREFVAAISRSGDRTYYADSVKGRFTISRDNAMNTVYLQMNSLKPEDTAVYYCNAWRYDYWGQGTQVTVSS | high polyreactivity
QVQLVESGGGLVQAGGSLRLSCAASGGIFGRYAMGWYRQAPGKERELVAGISYSGGSTYYADSVKGRFTISRDNAKNSVYLQMNSLKPEDTAVYYCATGGYVWYRSVNVWTRMDYWGQGTQVTVSS | high polyreactivity
QVQLVESGGGLVQAGGSLRLSCAASGNIFRRYAMGWYRQAPGKERELVAAITWSGGSTYYADSVKGRFTISRDNAKNTVYLQMNSLKPEDTAVYYCAARRFWHYGYPGAYIGFGYWGQGTQVTVSS | high polyreactivity
QVQLVESGGGLVQAGGSLRLSCAASGSTFFYYAMGWYRQAPGKERELVATIRGSAGRTYYADSVKGRFTISRDNAKNTVYLQMNSLKPEDTAVYYCARRYWPGSAYWIYDYWGQGTQVTVSS | high polyreactivity
QVQLVESGGGLVQAGGSLRLSCAASGSTFQSYAMGWYTQAPGKERELVAAISARGGTTYYADSVKGRFTISRDNAKNTVYLQMNSLKPEDTAVYYCAAEWDTNFWYDYWGQGTQVTVSS | low polyreactivity
QVQLVESGGGLVQAGGSLRLSCAASGGIFVGYAMGWYRQAPGKERELVAAISSGGNTYYADSVKGRFTISRDNAKNTVYLQMNSLKPEDTAVYYCAAVRQYQGYRYDYWGQGTQVTVSS | high polyreactivity
QVQLVESGGGIVQAGGSLRLSCAASGLTYGKYAMGWNRPAPGKERELVAANSRRGGSTYYADSVKGRFTISRDKAKNNDYLQMNRLKPEDSAVYYFNTDTKHTGLDYWGQGTQVSVSS | high polyreactivity
QVQLVESGGGLVQAGGSLRLSCAASGRTFYWNAMGWYRQAPGKEREFVAAITNTAGYTYYADSVKGRFTISRDNAKNTVYLQMNSLKPEDTAVYYCAKSGNAGYRTYLRDYWGQGTQVTVSS | low polyreactivity
QVQLVESGGGLVQAGGSLRLSCAASGRIFRLYAMGWYRQAPGKERELVAAIRSATRTTYADSVKGRFTISRDNAKNTVYLQMNSLKPEDTAFYYCAARLWRYSDVSKYYSWGQGTQVTVSS | high polyreactivity
QVQLVESGGVLVQAGGSLRLSCAASGLIFPSYALGWYRQAPGKERELVAAITFSGSDTNYADSVKGRFTISRDNAKNTVSLQMKSLKPEDTAVYYCAAAYFDFWGWLHDYWGQGTQVTVSS | low polyreactivity
QVQLVESGGGLVQAGGSLRLICAASGSTFGPNAMGWYRQAPGKEREFVASISWRGGRTYYADSVKGRFTISRDNAKNSVYLQMYCLKPEDTAVSYCAAVSYPAVYGFDYWGQGTQVTVSS | high polyreactivity
QVQLVESGGGLVQAGGSLRFSCAASGRIFGDYAMGWYRLAPGKERELVAAISWSDGSTYYADSVKGRFTISRDNAKNTVYLQMNSLKPEDTAVYYCAASYWDTEPGYREYDYWGQGTQVTVSS | low polyreactivity
QVQLVESGGGLVQAGGSLRLSCAASGRIFGWYAMGWYRQAPGKERELVAAITWSGTSTYYAYSVKGRFTISRDNAKNTVYLQMNSLKPEDTAVYYCAAEPGWTMDYWGQGTQVTVSS | low polyreactivity
QVQLVESGGGLVQAGGILRLSCASSGSICYWYAMGWYRQAPGKERELVASITGGGSKKYAESLKGRFTISRDNANNSVYLQINSLKREDTAVYYCAARYGQPWGSRYYYWGQVTQVTVSS | high polyreactivity
QVQLVESGGGLVQAGGTLRLSCAASGFTFSSYTVGWYRQAPRKERELVASISSGGSTNYADSVKGRFTISRDNAKNTVYLQMNSLIPEDTAVFYCAAGTPCISFYDVCSGYDYWGQGTQVTVSS | low polyreactivity
